B1: KIAA1161 (parent)
chain: FMPAMQFSIPPWRYDAEVVAIAQK
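Further: lentivirally expressed fusions sorted by FACS into six bins by GFP to DsRed ratio, PSI derived from sequencing read proportions per bin multiplied by bin number.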

This data set covers variants of B1. Description: protein stability index of a GFP-peptide fusion (GPS, HEK-293T) (PSI 1-6); higher = more stable. The settings on record: c terminus: a fixed tail appended.
Turning to FMPAMQFSIPPWRYDAEVVANAQK, the protein stability index came out at 2.11.

Turning to FMPAMQFSIPPWRYDAEVVATAQK, the protein stability index worked out at 2.17.

On to FMPAMQFSIPPWRYDAEVVASAQK, for which the protein stability index was found to be 2.38.

In the case of FMPAMQFSIPPWRYDAEVVAVAQK, the protein stability index was determined as 1.68.

In the case of FMPAMQFSIPPWRYDAEVVAHAQK, the protein stability index was determined as 2.32.

With FMPAMQFSIPPWRYDAEVVAKAQK, the protein stability index turned out to be 2.07.

Consider FMPAMQFSIPPWRYDAEVVAQAQK, for which the protein stability index was 2.81.

As for FMPAMQFSIPPWRYDAEVVADAQK, the protein stability index was 2.59.

FMPAMQFSIPPWRYDAEVVARAQK: the protein stability index stood at 2.31.

Turning to FMPAMQFSIPPWRYDAPVVAIAQK, the protein stability index is 1.48.

Regarding FMPAMQFSIPPWRYDARVVAIAQK, the protein stability index came out at 1.38.

FMPAMQFSIPPWRYDAWVVAIAQK: the protein stability index stood at 3.06.

Take FMPAMQFSIPPWRYDAHVVAIAQK: the protein stability index worked out at 1.92.

Regarding FMPAMQFSIPPWRYDAVVVAIAQK, the protein stability index is 1.24.

Consider FMPAMQFSIPPWRYDADVVAIAQK, for which the protein stability index is 1.54.

With FMPAMQFSIPPWRYDAGVVAIAQK, the protein stability index is 1.72.

FMPAMQFSIPPWRYDAQVVAIAQK: the protein stability index turned out to be 3.67.

On to FMPAMQFSIPPWRYDACVVAIAQK, for which the protein stability index came to 1.68.

With FMPAMQFSIPPWRYDAYVVAIAQK, the protein stability index worked out at 2.45.

Consider FMPAMQFSIPPWRYDAFVVAIAQK, for which the protein stability index was determined as 2.13.

In the case of FMPAMQFSIPPWRYDASVVAIAQK, the protein stability index stood at 1.62.

On to FMPAMQFSMPPWRYDAEVVAIAQK, for which the protein stability index amounted to 2.04.

FMPAMQFSEPPWRYDAEVVAIAQK: the protein stability index came out at 2.37.

As to FMPAMQFSWPPWRYDAEVVAIAQK, the protein stability index was determined as 3.43.

On to FMPAMQFSQPPWRYDAEVVAIAQK, for which the protein stability index came out at 1.67.

Consider FMPAMQFSRPPWRYDAEVVAIAQK, for which the protein stability index stood at 1.6.

In the case of KMPAMQFSIPPWRYDAEVVAIAQK, the protein stability index was determined as 2.55.

With NMPAMQFSIPPWRYDAEVVAIAQK, the protein stability index amounted to 2.61.

On to VMPAMQFSIPPWRYDAEVVAIAQK, for which the protein stability index was determined as 2.7.

On to AMPAMQFSIPPWRYDAEVVAIAQK, for which the protein stability index is 2.3.

Regarding LMPAMQFSIPPWRYDAEVVAIAQK, the protein stability index is 2.37.

With IMPAMQFSIPPWRYDAEVVAIAQK, the protein stability index was 2.52.

MMPAMQFSIPPWRYDAEVVAIAQK: the protein stability index is 2.83.

Consider CMPAMQFSIPPWRYDAEVVAIAQK, for which the protein stability index was 1.97.

Consider WMPAMQFSIPPWRYDAEVVAIAQK, for which the protein stability index was found to be 1.95.

SMPAMQFSIPPWRYDAEVVAIAQK: the protein stability index came to 1.84.

As for FMPAMQFSIPPWWYDAEVVAIAQK, the protein stability index came out at 1.58.

As to FMPAMQFSIPPWPYDAEVVAIAQK, the protein stability index worked out at 2.17.

Turning to FMPAMQFSIPPWSYDAEVVAIAQK, the protein stability index worked out at 1.63.

For the variant FMPAMQFSIPPWAYDAEVVAIAQK, the protein stability index was determined as 2.04.

Regarding FMPAMQFSIPPWIYDAEVVAIAQK, the protein stability index was found to be 1.81.

Consider FMPAMQFSIPPWQYDAEVVAIAQK, for which the protein stability index was 2.53.

Take FMPAMQFSIPPWDYDAEVVAIAQK: the protein stability index was determined as 2.67.

Consider FMPAMQFSIPPWYYDAEVVAIAQK, for which the protein stability index stood at 1.69.

On to FMPAMQFSIPPWRYDDEVVAIAQK, for which the protein stability index turned out to be 2.25.

Take FMPAMQFSIPPWRYDWEVVAIAQK: the protein stability index amounted to 1.66.

In the case of FMPAMQFSIPPWRYDYEVVAIAQK, the protein stability index stood at 2.19.

For FMPAMQFSIPPWRYDNEVVAIAQK, the protein stability index was 2.02.

FMPAMQFSIPPWRYDFEVVAIAQK: the protein stability index stood at 2.28.

With FMPAMQFSIPPWRYDQEVVAIAQK, the protein stability index was 1.62.

In the case of FMPAMQFSIPPWRYDHEVVAIAQK, the protein stability index came to 1.63.

In the case of FMPAMQFSIPPWRYDSEVVAIAQK, the protein stability index amounted to 1.72.

In the case of FMPAMQFSIPPWRYDMEVVAIAQK, the protein stability index was 1.53.

Turning to FMPANQFSIPPWRYDAEVVAIAQK, the protein stability index amounted to 1.9.

As to FMPAYQFSIPPWRYDAEVVAIAQK, the protein stability index is 1.77.

In the case of FMPASQFSIPPWRYDAEVVAIAQK, the protein stability index was found to be 2.24.

FMPACQFSIPPWRYDAEVVAIAQK: the protein stability index came to 2.11.

On to FMPATQFSIPPWRYDAEVVAIAQK, for which the protein stability index amounted to 1.68.

Consider FMPAFQFSIPPWRYDAEVVAIAQK, for which the protein stability index worked out at 2.25.

FMPAHQFSIPPWRYDAEVVAIAQK: the protein stability index turned out to be 2.71.

Take FMPAGQFSIPPWRYDAEVVAIAQK: the protein stability index was 3.64.

On to FMPAMQFSIMPWRYDAEVVAIAQK, for which the protein stability index was 1.

On to FMPAMQFSIYPWRYDAEVVAIAQK, for which the protein stability index worked out at 2.34.

Consider FMPAMQFSIRPWRYDAEVVAIAQK, for which the protein stability index came to 1.28.

On to FMPAMQFSIDPWRYDAEVVAIAQK, for which the protein stability index amounted to 1.27.

For the variant FMPAMQFSIKPWRYDAEVVAIAQK, the protein stability index was determined as 2.57.

Turning to FMPAMQFSIAPWRYDAEVVAIAQK, the protein stability index was found to be 1.33.

Turning to FMPAMQFSIWPWRYDAEVVAIAQK, the protein stability index turned out to be 3.74.

For FMPAMQFSIPPWRYDAEVVVIAQK, the protein stability index worked out at 1.91.

With FMPAMQFSIPPWRYDAEVVTIAQK, the protein stability index was found to be 1.92.

Consider FMPAMQFSIPPWRYDAEVVMIAQK, for which the protein stability index is 1.32.

For the variant FMPAMQFSIPPWRYDAEVVNIAQK, the protein stability index came to 3.44.

In the case of FMPAMQFSIPPWRYDAEVVSIAQK, the protein stability index was 1.59.

In the case of FMPAMQFSIPPWRYDAEVVHIAQK, the protein stability index stood at 1.97.

FMPAMQFSIPPWRYDAEVVDIAQK: the protein stability index is 3.07.

For the variant FMPAMYFSIPPWRYDAEVVAIAQK, the protein stability index worked out at 1.34.

For the variant FMPAMIFSIPPWRYDAEVVAIAQK, the protein stability index was found to be 1.34.

Take FMPAMRFSIPPWRYDAEVVAIAQK: the protein stability index was 1.82.

With FMPAMAFSIPPWRYDAEVVAIAQK, the protein stability index was determined as 2.33.

Consider FMPAMKFSIPPWRYDAEVVAIAQK, for which the protein stability index came out at 1.93.

With FMPAMDFSIPPWRYDAEVVAIAQK, the protein stability index stood at 1.92.

For the variant FMPAMQFCIPPWRYDAEVVAIAQK, the protein stability index was 1.07.

Consider FMPAMQFIIPPWRYDAEVVAIAQK, for which the protein stability index was 2.81.

Regarding FMPAMQFVIPPWRYDAEVVAIAQK, the protein stability index was 2.

For FMPAMQFAIPPWRYDAEVVAIAQK, the protein stability index is 1.69.

On to FMPAMQFMIPPWRYDAEVVAIAQK, for which the protein stability index turned out to be 1.71.

FMPAMQFGIPPWRYDAEVVAIAQK: the protein stability index was found to be 1.65.

FMPAMQFFIPPWRYDAEVVAIAQK: the protein stability index stood at 2.68.

As to FMPAMQFSIPHWRYDAEVVAIAQK, the protein stability index came out at 3.1.

Take FMPAMQFSIPNWRYDAEVVAIAQK: the protein stability index stood at 2.11.

As to FMPAMQFSIPGWRYDAEVVAIAQK, the protein stability index was 1.48.

As to FMPAMQFSIPFWRYDAEVVAIAQK, the protein stability index amounted to 2.17.

With FMPAMQFSIPIWRYDAEVVAIAQK, the protein stability index was found to be 1.59.

Turning to FMPAMQFSIPRWRYDAEVVAIAQK, the protein stability index was determined as 1.48.

The values are drawn from the supplement of paper PMC10567573.
